We go through one substance from publication PMC5004148.

Test [1] concerns the target transmembrane truncated VP24 (residues 28-208) (White spot syndrome virus (WSSV)). Description: cross-linking; purified VP24 in PBS (around 0.6 mg/ml in 40 ul) with rising glutaraldehyde, room temperature, 4 h; 15% SDS-PAGE, Coomassie blue.
Test [2] shares this target. The experiment in a line: crystal structure; X-ray, SAD phasing, 2.4 Å, space group I 2(1) 3; trimer by the crystallographic three-fold axis; 0.1 M Tris-HCl pH 8.5, 2.75 M ammonium acetate, 10 mM ATP as additive, 16 °C.

As a reminder, the stoichiometry N is the number of molecules, sites or subunits per partner or assembly. Consider “transmembrane truncated VP24 (residues 28-208) (domain or fragment)”, for which the stoichiometry N in test [1] and in test [2] was 3 each time.
